Common to all, as to assay: spectrophotometric decarboxylation kinetics
Holding throughout (type): biochemical, Bordetella bronchiseptica
Holding throughout (conditions): assay conditions in Supporting Information

Substrate in data set [1]: Cc1ccc(C(O)(C(=O)O)C(=O)O)o1
Substrate in data set [2]: O=C(O)C(C(=O)O)c1ccco1
Substrate in data set [3]: O=C(O)C(O)(C(=O)O)c1cc2ccccc2o1
Substrate in data set [4]: O=C(O)C(O)(C(=O)O)c1ccc2sccc2c1
Substrate in data set [5]: O=C(O)C(O)(C(=O)O)c1cccnc1
Substrate in data set [6]: O=C(O)C(O)(C(=O)O)c1ccco1
Substrate in data set [7]: O=C(O)C(O)(C(=O)O)c1cccs1

B1: aryl/alkenyl malonate decarboxylase (AMDase) (Bordetella bronchiseptica) (protein)
chain: MQQASTPTIGMIVPPAAGLVPADGARLYPDLPFIASGLGLGSVTPEGYDAVIESVVDHARRLQKQGAAVVSLMGTSLSFYRGAAFNAALTVAMREATGLPCTTMSTAVLNGLRALGVRRVALATAYIDDVNERLAAFLAEESLVPTGCRSLGITGVEAMARVDTATLVDLCVRAFEAAPDSDGILLSCGGLLTLDAIPEVERRLGVPVVSSSPAGFWDAVRLAGGGAKARPGYGRLFDES
notes: AMDase, construct details only in Supporting Information
The term Km denotes the substrate concentration at which the rate is half of its maximum. As usually defined, the kcat is the maximal rate divided by the concentration of active sites. Usually kcat/Km stands for the second-order rate constant that governs catalysis at low substrate concentration. Take B1: the Km amounted to 9.8 ± 2.2 mM in data set [1]; 10.1 ± 4.5 mM in data set [2]; 8.2 ± 1.6 mM in data set [3]; 3.1 ± 0.17 mM in data set [4]; 6.4 ± 0.6 mM in data set [5]; 8.6 ± 2.1 mM in data set [6]. Moreover, the Km in data set [7] stood at 4.3 ± 0.5 mM. In addition, the kcat in data set [1] came out at 37.1 ± 8.8 s⁻¹; in data set [3] it was 278 ± 33.9 s⁻¹; in data set [4], 148 ± 4.6 s⁻¹; in data set [5], 225 ± 36.3 s⁻¹; in data set [6] it was 61.9 ± 6 s⁻¹; in data set [7] it was 166 ± 10.6 s⁻¹. In addition, the kcat/Km in data set [1] turned out to be 3800 ± 500 M⁻¹ s⁻¹; in data set [3], 33900 ± 320 M⁻¹ s⁻¹; in data set [4], 48300 ± 170 M⁻¹ s⁻¹; in data set [5], 35300 ± 250 M⁻¹ s⁻¹; in data set [6], 6400 ± 400 M⁻¹ s⁻¹; in data set [7], 38600 ± 200 M⁻¹ s⁻¹.

The values above are taken from PMC4517146, “Enzymatic Enantioselective Decarboxylative Protonation of Heteroaryl Malonates” (Chemistry (Weinheim an Der Bergstrasse, Germany), 2015).
